The series deals with the molecule itself. In words: non-reducing SDS-PAGE.

B1: MBP-tagged IAA3/SHY2 (wild type), recombinant (natural protein, Arabidopsis thaliana, UniProt Q38822 1-189, looked up)
chain: MDEFVNLKETELRLGLPGTDNVCEAKERVSCCNNNNKRVLSTDTEKEIESSSRKTETSPPRKAQIVGWPPVRSYRKNNIQSKKNESEHEGQGIYVKVSMDGAPYLRKIDLSCYKGYSELLKALEVMFKFSVGEYFERDGYKGSDFVPTYEDKDGDWMLIGDVPWEMFICTCKRLRIMKGSEAKGLGCGV
For the protein B1, the binding result is given as “binds”.

B2: MBP-tagged IAA19/MSG2, recombinant (natural protein, Arabidopsis thaliana, UniProt O24409 1-197, looked up)
chain: MEKEGLGLEITELRLGLPGRDVAEKMMKKRAFTEMNMTSSGSNSDQCESGVVSSGGDAEKVNDSPAAKSQVVGWPPVCSYRKKNSCKEASTTKVGLGYVKVSMDGVPYLRKMDLGSSQGYDDLAFALDKLFGFRGIGVALKDGDNCEYVTIYEDKDGDWMLAGDVPWGMFLESCKRLRIMKRSDATGFGLQPRGVDE
In the case of B2, the binding result is “binds”.

These data come from publication doi:10.1101/2024.02.12.579961 (bioRxiv, 2024).
